B1: H7.HK4 (antibody, V domains shown)
VH: QVQLQESGPGLVKPSETLSLTCTVSGGSVRSASYAWSWIRQPPGKGLEWIGDIYYSGTTNYNPSLKSRVTLSVDTAKNRFSLRLRSVTAADTAVYHCARERYYYGSSGDFDYWGQGTLVTVSS
VL: DIQMTQSPSSLSASVGDRVTITCRASQGIRNYLAWFQQKPGQAPKSLIFAASSLHTGVPSRFSGSGSGTDFTLTISSLQPEDFATYYCQHYNSYPPTFGQGTKLEIK
B2: H7.HK2 (antibody, V domains shown)
VH: QVQLQGSGPGLLRPSETLSLTCSVSGVSINSYYWSWVRQPPGKALEWIGYIYYSGNTNYNPSLESRVTISVDRSKNQFSLKMTSVTAADTARYFCARQGIFGDYGSDYWGPGTLVTVSS
VL: DIVMTQSPLSLPVTPGEPASISCRSNQSLQHSNGYVHLDWYRQKPGQSPHLLIYLGFNRASGVPDRFSGGGSGTDFTLKISRVEAEDVGVYYCMQGLQTPFTFGPGTTVDLK
B3: H7.HK1 (antibody, V domains shown)
VH: QVQLQESGPGLVKPSETLSLTCSVSGGSINSYYWTWIRQPPGKGLEWVGYIYHSGSTSYNPSLKSRITISVAPSKNHFSLELTSMTAADTAVYYCARLGGHGDYGSDYWGQGTLVTVSS
VL: DIVMTQSPVSLPVTPGEPASISCNSSQSLLHSNGYAHLDWYLQKPGQSPKLMIYLGLNRAFGVPDRFSGSGSGTDFTLKISRVEAEDVGVYYCMQALQTPFTFGPGTRVDIK

Assays:
[1] = biological target: H7 hemagglutinin of A/Shanghai/4664T/2013 H7N9 on pseudo virus (Influenza A virus A/Shanghai/4664T/2013 H7N9); experiment: cell-based or functional assay
[2] = biological target: H7 hemagglutinin of A/Hong Kong/125/2017 H7N9 on pseudo virus (Influenza A virus A/Hong Kong/125/2017 H7N9); experiment: cell-based or functional assay

| Binder | neutralization, H7N9 2013 pseudo virus, MDCK cells, luciferase [1] | neutralization IC50, H7N9 2017 pseudo virus, MDCK cells, luciferase [2] |
| --- | --- | --- |
| B1 | > 10 µg/mL |  |
| B2 |  | 0.03 µg/mL |
| B3 |  | 0.03 µg/mL |

Source: patent US20260176306A1
